What all share (experiment): SPR
On the technique in general: Surface plasmon resonance follows binding to a sensor surface in real time, without labels.

For experiment [1], the target named is Tau 441 P301S (human, UniProt P10636-8 1-441, P301S).
The target of experiment [2] is T1, human Tau 441 full-length protein (4R tau), SPR construct (human, UniProt P10636-8 1-441).
For experiment [3], the target named is Tau 410 P216A (human, UniProt P10636-5 1-410, P216A).
Experiment [4] addresses T1, human Tau 441 full-length protein (4R …). This is another data set of the same source.
Experiment [5] addresses Tau 410 P179A (human, UniProt P10636-5 1-410, P179A).
For experiment [6], the target named is Tau 410 P179A/P216A (human, UniProt P10636-5 1-410, P179A | P216A).
In experiment [7] the target is human Tau 410 full-length protein (3R tau), SPR construct (human, UniProt P10636-5 1-410).

Read-outs that look alike come from different tables or passages of the source.

T1 sequence (P10636 other isoform, or with tags, fused parts or gaps): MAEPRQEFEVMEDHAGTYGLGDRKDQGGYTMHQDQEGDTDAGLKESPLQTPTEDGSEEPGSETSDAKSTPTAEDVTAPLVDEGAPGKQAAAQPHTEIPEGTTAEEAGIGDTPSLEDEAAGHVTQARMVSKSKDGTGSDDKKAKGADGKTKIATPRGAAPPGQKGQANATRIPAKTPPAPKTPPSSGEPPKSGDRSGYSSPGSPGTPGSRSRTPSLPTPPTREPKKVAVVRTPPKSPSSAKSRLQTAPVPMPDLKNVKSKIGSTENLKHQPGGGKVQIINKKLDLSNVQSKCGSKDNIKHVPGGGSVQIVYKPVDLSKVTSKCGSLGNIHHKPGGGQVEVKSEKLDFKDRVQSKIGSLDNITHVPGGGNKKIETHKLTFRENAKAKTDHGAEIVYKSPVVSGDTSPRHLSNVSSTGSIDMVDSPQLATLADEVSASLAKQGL
Sequence of Tau 410 P216A (P10636 other isoform, or with tags, fused parts or gaps P216A | P216A): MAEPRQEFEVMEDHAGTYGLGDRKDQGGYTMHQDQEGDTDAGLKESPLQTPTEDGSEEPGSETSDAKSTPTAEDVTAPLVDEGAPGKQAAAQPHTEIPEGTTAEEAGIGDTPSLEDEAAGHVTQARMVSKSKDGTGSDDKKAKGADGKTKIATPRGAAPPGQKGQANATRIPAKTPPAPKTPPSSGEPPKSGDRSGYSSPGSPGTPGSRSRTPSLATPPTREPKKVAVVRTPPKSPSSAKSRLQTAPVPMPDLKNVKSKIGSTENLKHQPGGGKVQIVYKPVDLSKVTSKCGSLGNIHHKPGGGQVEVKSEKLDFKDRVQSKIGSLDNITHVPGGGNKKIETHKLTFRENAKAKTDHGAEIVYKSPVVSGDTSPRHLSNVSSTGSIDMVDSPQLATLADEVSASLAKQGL
Sequence of human Tau 410 full-length protein (3R tau), SPR construct (P10636 other isoform, or with tags, fused parts or gaps): as the sequence (P10636 other isoform, or with tags, fused parts or gaps P216A | P216A) above, with A216P counted along it
Sequence of Tau 410 P179A (P10636 other isoform, or with tags, fused parts or gaps P179A | P179A): as the sequence (P10636 other isoform, or with tags, fused parts or gaps P216A | P216A) above, with P179A, A216P counted along it
Sequence of Tau 410 P179A/P216A (P10636 other isoform, or with tags, fused parts or gaps P179A | P216A | P179A P216A): as the sequence (P10636 other isoform, or with tags, fused parts or gaps P216A | P216A) above, with P179A counted along it
Sequence of Tau 441 P301S (P10636 other isoform, or with tags, fused parts or gaps P301S | P301S): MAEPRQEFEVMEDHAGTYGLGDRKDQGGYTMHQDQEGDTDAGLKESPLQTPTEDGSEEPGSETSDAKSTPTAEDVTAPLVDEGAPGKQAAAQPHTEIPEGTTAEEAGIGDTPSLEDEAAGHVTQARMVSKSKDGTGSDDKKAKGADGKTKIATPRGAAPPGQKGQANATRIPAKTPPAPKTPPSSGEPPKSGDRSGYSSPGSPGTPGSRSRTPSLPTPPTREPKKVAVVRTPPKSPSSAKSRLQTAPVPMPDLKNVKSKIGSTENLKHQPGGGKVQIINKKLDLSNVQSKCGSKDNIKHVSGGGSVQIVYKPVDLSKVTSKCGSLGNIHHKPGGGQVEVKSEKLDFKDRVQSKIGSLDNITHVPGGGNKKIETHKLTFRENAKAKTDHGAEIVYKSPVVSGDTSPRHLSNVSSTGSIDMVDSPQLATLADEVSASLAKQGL

B1: human PQBP1(1–94) including WWD (domain or fragment)
chain: MPLPVALQTRLAKRGILKHLEPEPEEEIIAEDYDDDPVDYEATRLEGLPPSWYKVFDPSCGLPYYWNADTDLVSWLSPHDPNSVVTKSAKKLRS
As a reminder, the Kd is a measure of binding affinity in units of concentration. The low end stands for a tighter complex, the high end for a looser complex. For B1, the Kd amounted to 46.2 nM in experiment [1]; 54.7 nM in experiment [2]; 445 nM in experiment [3]; 11 nM in experiment [4]; 6.34 µM in experiment [5]; 73.3 µM in experiment [6]. This molecule also had a dissociation constant Kd in experiment [7] of 76.9 nM.

B2: human PQBP1 full-length form (PQBP1-FL) (natural protein)
chain: MPLPVALQTRLAKRGILKHLEPEPEEEIIAEDYDDDPVDYEATRLEGLPPSWYKVFDPSCGLPYYWNADTDLVSWLSPHDPNSVVTKSAKKLRSSNADAEEKLDRSHDKSDRGHDKSDRSHEKLDRGHDKSDRGHDKSDRDRERGYDKVDRERERDRERDRDRGYDKADREEGKERRHHRREELAPYPKSKKAVSRKDEELDPMDPSSYSDAPRGTWSTGLPKRNEAKTGADTTAAGPLFQQRPYPSPGAVLRANAEASRTKQQD
As to B2, the Kd in experiment [1] worked out at 51.5 nM; in experiment [2] it was 42.1 nM; in experiment [3], 314 nM; in experiment [4] it was 12.2 nM; in experiment [5], 4.82 µM; in experiment [6] it was 26 µM. Moreover, binding in experiment [7] was characterised by a dissociation constant (Kd) of 43.3 nM.

These data come from article PMC8592984 (2021).
